Measurements as given in patent US9290794B2, “Mutant protease biosensors with enhanced detection characteristics” (PROMEGA CORPORATION, priority 2010, dated 2016).

How the values were obtained:
caspase-3 [1] = test: CBS variants transiently transfected in HEK293 cells, kinetic luminescence response to TRAIL treatment; format: cell-based
From the text: The Caspase-3 BioSensor (CBS) is a thermostable Photuris pennsylvanica luciferase (TL), circularly-permuted (CP) at amino acid 358, with a caspase-3 recognition site, i.e., one containing the caspase-3 recognition site comprising amino acids DEVD, at the junction between the TL fragments. The specific CBS that was used as the starting template is termed TL-CP358-DEVD:DD. The amino acid sequence of this CBS can be represented as: M/TL residues 358-544/SDEVDGSL/TL residues 4-354/V (SEQ ID NO:6). The amino acid positions in the CP TL correlate to those of the non-CP TL sequence (provided in the attached appendix). Upon treatment with caspase-3, CBS is cleaved at the recognition site allowing the two TL fragments to form a more favorable, higher activity, conformation.
The utility of CBS is the differential activity before and after cleavage by caspase-3. The basal activity of CBS is defined as the activity at assay time (O), before caspase-3 has had time to cleave at the recognition site. The induced activity is defined as the activity at some later time (t) after CBS has been cleaved by caspase-3. The response or fold increase in activity, is the ratio of induced to basal activity. Substitutions in TL-CP358-DEVD:DD were generated to develop CBS variants with enhanced responsivity to induction using the error-prone, mutagenic PCR-based system GeneMorph II (Stratagene; Daugherty, PNAS USA 97(5):2029 (2000)), according to manufacturer's instructions.
The resulting library was expressed in E. coli and screened for luciferase activity with and without pre-treatment with recombinant caspase-3 (data not shown). CBS variants having the best signal and response characteristics were then evaluated in HEK293 cells by kinetic assay measuring the response to TNF-α-related apoptosis inducing ligand (TRAIL) treatment (Wiley, S. R. et al., Immunity 3:673 (1995); Niles, A. L. et al., Meth. Mol. Biol. 414:137 (2008)). TRAIL induces apoptosis via activation of the death receptor to form active caspase-8, which in turn activates procaspase 3 to produce caspase-3. The appearance of active caspase-3 should be accompanied by an increase in luminescence as the CBS variants are cleaved and activated. Briefly, HEK293 cells, plated at 15,000 cells/well in a 96-well plate, were transiently transfected using TransIT-LTI (Mires Bio) with plasmid DNAs encoding various CBS variants with amino acid substitutions in TL-CP358-DEVD:DD. The same plasmids also carried a gene for constitutive expression of Renilla luciferase to act as a transfection control. Cells were pretreated with 2 mM luciferin for 2 hrs at 37° C. Cells were treated with 1 μg/mL TRAIL and assayed for 10 hrs at 37° C. Luminescence was monitored continuously over time (Luminometer: Varioskan Flash (Thermo) 1 sec integration time). Cells in replicate wells were lysed, at the time of TRAIL addition, i.e., time (0) and Renilla luciferase activity was measured. All biosensor data was then normalized for transfection efficiency using Renilla luciferase luminescence (Dual-GloAssay System; Promega Corporation).
Table 1 lists the variants of TL-CP358-DEVD:DD, identified by clone name, showing improved response to TRAIL treatment. Improvements listed in Table 1 are normalized to the parental TL-CP358-DEVD:DD CBS. “BASAL” represents the normalized biosensor luminescence at TRAIL addition, i.e., time (0), “INDUCED” represents the normalized biosensor luminescence at roughly 10 hrs after TRAIL addition, and “RESPONSE” represents the fold-induction, i.e., the ratio of INDUCED to BASAL activity.
Additional CBS variants were generated using the oligo-based site-directed mutagenesis kit Quik Change (Stratagene; Kunkel, PNAS USA 82(2):488 (1985)), according to the manufacturer's instructions. […]

caspase-3 [2] = test: Purified HQ:CBS:HT from E. coli immobilized on solid support, activation by Caspase-3; format: biochemical
caspase-3 [3] = test: CBS expressed in E. coli, HisLink purification fractions, caspase-3 cleavage reaction; format: biochemical
Method: The CBS variant 1A5 was cloned into a bacterial expression vector (pFNA:HQ(5×):CBS:HT(7); SEQ ID NOs:73 and 74) containing HaloTag® (C-terminal to the CBS) and a 5×HQ tag (N-terminal to CBS). The fusion protein was expressed in E. coli as follows: E. coli (KRX) was transformed with the vector. A starter culture (50 mL, LB Broth) was inoculated from a single colony and grown for 17-22 hrs at 37° C. with shaking (275 rpm). The starter culture was diluted (1:50) into induction media (500 mL, LB Broth with 0.05% glucose and 0.02% rhamnose) and growth was continued for another 17-22 hrs at 25° C. with shaking (275 rpm). The culture was divided into two 250 mL aliquots, and cells were collected by centrifugation (5,000×g for 20 min at 4° C.). One cell pellet was re-suspended in Lysis Buffer (25 mL, 50 mM HEPES (pH 7.5), 0.2× FastBreak, 2 mM DTT, 0.05% CHAPS, 50 mM Arginine, 50 mM Glutamic acid, 0.2 mg/mL Lysozyme, 10 U/mL RQ1 DNase, and Protease Inhibitors (Beckton/Dickenson Cat. No. 544779)) and incubated on ice for 30 min. After incubation, the sample was sonicated (Misonix Sonicator-3000, 4 mM total, 5 sec on, 5 sec rest, Power Setting 5). The crude lysate was clarified by centrifugation (20,000×g for 20 min at 4° C.), and the supernatant (cleared lysate) was used as the CBS source. For the caspase-3 cleavage reaction, 20 μl of the cleared lysate was mixed with 20 μL E. coli lysate expressing caspase-3 (Example XII) and incubated at room temperature for 30 min. 60 μL HEPES pH 7.5 was added, followed by the addition of 100 μL Bright-Glo Assay Reagent. Luminescence was detected as previously described above (FIG. 20).
Briefly, 25 mL of cleared lysate was made 0.5 M in NaCl (final concentration) and applied to 2 mL of settled HisLink resin that had been equilibrated with Binding Buffer (100 mM HEPES (pH7.5), 10 mM Imidazole, 500 mM NaCl). The resin was washed with 12 mL of Binding Buffer followed by washing with Elution Buffer (100 mM HEPES (pH 7.5), 1000 mM Imidazole). 1.75 mL fractions were collected.
For SDS-PAGE gel analysis, samples were labeled with CA-TAM and analyzed as described previously (FIG. 21A). For caspase-3 cleavage reaction, 20 μl of each sample was mixed with 20 μL E. coli lysate expressing Caspase-3 (Example XII) and incubated at room temperature for 30 min. 60 μL HEPES pH 7.5 was added, followed by the addition of 100 μL Bright-Glo Assay Reagent. Luminescence was detected as previously described above (Table 10 and FIG. 21B).

[4] = HisLink purification sample HSS
[5] = HisLink purification sample NSM
[6] = HisLink purification sample WASH

B1: FC7: 43: CBS variant, 471IT 503SG 507TI (SEQ ID NOs:11 and 12) (protein)
chain: MPGSTGKIVPLHAVKVVDPTTGKILGPNEPGELYFKGPMIMKGYYNNEEATKAIIDNDGWLRSGDIAYYDNDGHFYIVDRLKSLIKYKGYQVAPAEIEGILLQHPYIVDAGVTGTPDEAAGELPAAGVVVQTGKYLNEQIVQDYVAGQVSIAKWLRGGVKFLDEIPKGSTGKIDRKVLRQMLEKHTNGSDEVDGSLKNILYGPEPFYPLEDGTAGEQMFDALSRYAAIPGCIALTNAHTKENVLYEEFLKLSCRLAESFKKYGLKQNDTIAVCSENSLQFFLPVIASLYLGIIVAPVNDKYIERELIHSLGIVKPRIVFCSKNTFQKVLNVKSKLKSIETIIILDLNEDLGGYQCLNNFISQNSDSNLDVKKFKPYSFNRDDQVASIMFSSGTTGLPKGVMLTHKNIVARFSIAKDPTFGNAINPTSAILTVIPFHHGFGMMTTLGYFTCGFRVVLMHTFEEKLFLQSLQDYKVESTLLVPTLMAFLAKSALVEKYDLSHLKEIASGGAPLSKEIGEMVKKRFKLNFVRQGYGLTETTSAVLITPKGV
- RESPONSE, IMPROVEMENT OVER TL-CP358-DEVD:DD (caspase-3 [1]; Table 2 combination variants, ratio of INDUCED to BASAL): 6.735 fold
- INDUCED, IMPROVEMENT OVER TL-CP358-DEVD:DD (caspase-3 [1]; Table 2 combination variants, roughly 10 hrs after TRAIL, HEK293): 0.189 fold
- BASAL, IMPROVEMENT OVER TL-CP358-DEVD:DD (caspase-3 [1]; Table 2 combination variants, time (0), HEK293 as in Example I): 0.028 fold
- greater RESPONSE compared with TL-CP358-DEVD:DD (caspase-3 [1]; after 10 hrs TRAIL treatment, live cells (FIGS. 2, 3)): about 2.2 times

B2: HQ:CBS:HT: 5×HQ tag:CBS (variant 1A5):HaloTag fusion protein expressed in E. coli (SEQ ID NOs:73 and 74) (protein)
chain: MKHQHQHQAIAMPGSTGKIVPLHAVKVVDPTTGKILGPNEPGELYFKGPMIMKGYYNNEEATKAIIDNDGWLRSGDIAYYDNDGHFYIVDRLKSLIKYKGYQVAPAEIEGILLQHPYIVDAGVTGIPDEAAGELPAAGVVVQTGKYLNEQIVQDYVASQVSIAKWLRGGVKFLDEIPKGSTGKIDRKVLRQMLEKHTNGSDEVDGSLKNILYGPEPFYPLEDGTAGEQMFDALSRYAAIPGCIALTNAHTKENVLYEEFLKLSCRLAESFKKYGLKQNDTIAVCSENSLQFFLPVIASLYLGIIVAPVNDKYIERELIHSLGIVKPRIVFCSKNTFQKVLNVKSKLKSIETIIILDLNEDLGGYQCLNNFISQNSDSNLDVKKFKPYSFNRDDQVASIMFSSGTTGLPKGVMLTHKNIVARFSIAKDPTFGNAINPTSAILTVIPFHHGFGMMTTLGYFTCGFRVVLMHTFEEKLFLQSLQDYKVESTLLVPTLMAFLAKSALVEKYDLSHLKEIASGGAPLSKEIGEMVKKRFKLNFVRQGYGLTETTSAVLITPKGVSLEPTTEDLYFQSDNDGSEIGTGFPFDPHYVEVLGERMHYVDVGPRDGTPVLFLHGNPTSSYVWRNIIPHVAPTHRCIAPDLIGMGKSDKPDLGYFFDDHVRFMDAFIEALGLEEVVLVIHDWGSALGFHWAKRNPERVKGIAFMEFIRPIPTWDEWPEFARETFQAFRTTDVGRKLIIDQNVFIEGTLPMGVVRPLTEVEMDHYREPFLNPVDREPLWRFPNELPIAGEPANIVALVEEYMDWLHQSPVPKLLFWGTPGVLIPPAEAARLAKSLPNCKAVDIGPGLNLLQEDNPDLIGSEIARWLSTLEISG
- BASAL luminescence (caspase-3 [2]; column HaloLink-Plate): 6,880
- INDUCED luminescence (caspase-3 [2]; column HaloLink-Plate): 661,597
- RESPONSE (caspase-3 [2]; column HaloLink-Plate): 96
- BASAL luminescence (caspase-3 [2]; column HisLink): 193,268
- INDUCED luminescence (caspase-3 [2]; column HisLink): 40,913,496
- RESPONSE (caspase-3 [2]; column HisLink): 212
- BASAL luminescence (caspase-3 [3]; HisLink elution fraction E1): 4,221
- INDUCED luminescence (caspase-3 [3]; HisLink elution fraction E1): 2,951,899
- RESPONSE (caspase-3 [3]; HisLink elution fraction E1): 699
- BASAL luminescence (caspase-3 [3]; HisLink elution fraction E2): 193,268
- INDUCED luminescence (caspase-3 [3]; HisLink elution fraction E2): 40,913,496
- RESPONSE (caspase-3 [3]; HisLink elution fraction E2): 212
- BASAL luminescence (caspase-3 [3]; HisLink elution fraction E3): 18,454
- INDUCED luminescence (caspase-3 [3]; HisLink elution fraction E3): 3,287,059
- RESPONSE (caspase-3 [3]; HisLink elution fraction E3): 178
- BASAL luminescence (caspase-3 [3]; HisLink elution fraction E4): 1,130
- INDUCED luminescence (caspase-3 [3]; HisLink elution fraction E4): 215,580
- RESPONSE (caspase-3 [3]; HisLink elution fraction E4): 191
- BASAL luminescence (caspase-3 [3]; HisLink elution fraction E5): 270
- INDUCED luminescence (caspase-3 [3]; HisLink elution fraction E5): 48,068
- RESPONSE (caspase-3 [3]; HisLink elution fraction E5): 178
- BASAL luminescence (caspase-3 [3]; [4]): 301,304
- INDUCED luminescence (caspase-3 [3]; [4]): 12,875,742
- RESPONSE (caspase-3 [3]; [4]): 43
- BASAL luminescence (caspase-3 [3]; [5]): 176,259
- INDUCED luminescence (caspase-3 [3]; [5]): 5,822,003
- RESPONSE (caspase-3 [3]; [5]): 33
- BASAL luminescence (caspase-3 [3]; [6]): 7,734
- INDUCED luminescence (caspase-3 [3]; [6]): 3,706,541
- RESPONSE (caspase-3 [3]; [6]): 479
